Several values for one entry are separate records, joined by “and”; a condition that tells them apart may be missing. Equal values may be shown once.
B1: PKN1-(C2)-(342–605) (domain or fragment)
chain: not shown
notes: PKC-related serine/threonine protein kinase N1 (PKN1), rat, residues 342-605 (C2-like domain and part of the hinge region), amplified by PCR from rat liver; Cloned between NdeI and XhoI of pET15b; this vector probably adds an N-terminal His tag with a thrombin site, and no cleavage is described; also called PKN1-(342–605); histidine-tagged PKN1 (residues 342–605)
B2: PKN1-(25–485) (domain or fragment)
chain: not shown
notes: PKC-related serine/threonine protein kinase N1 (PKN1), rat, residues 25-485 (HR1 and the AlphaFold-defined C2 region 310-473); The pET15b-PKN1-(25–485) plasmid was synthesized commercially; the vector probably adds an N-terminal His tag, and no cleavage is described; also called histidine-tagged PKN1 (residues 25–485)

How the values were obtained:
[1] = biological target: the molecule itself; test: MALDI-TOF mass spectrometry; sinapinic acid matrix in 70% acetonitrile, 0.05% TFA; positive ion-linear mode
[2] = biological target: the molecule itself; test: SEC; 25 mL Sephacryl 200 (S-200) column, 20 mM phosphate buffer pH 7.4, 150 mM NaCl, 4 °C; refolded PKN1-(C2); calibrated column
[3] = biological target: the molecule itself; test: SEC; Superdex-200 Increase (10/300 GL), 50 mM Tris-HCl pH 7.5, 150 mM NaCl, 0.075% Brij-35; native conditions

Protein | stoichiometry N [1] | stoichiometry N [2] | stoichiometry N [3]
B1 | 2 | 3 and 4 | 
B2 |  |  | 3

Reference: paper PMC10956426, “Lipid-Binding Regions within PKC-Related Serine/Threonine Protein Kinase N1 (PKN1) Required for Its Regulation” (Biochemistry, 2024)
